In the supplement of paper PMC12764529:
± gives the half width of the 95% confidence interval.

Tests used:
[1] = folding stability dG unfold from trypsin proteolysis; higher = more stable
Description: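 Folding stability of de novo designed mini-proteins (<80 aa, no Cys; designed by TrROS, TrMRF, ProteinMPNN and the joint model) was measured by cDNA display proteolysis with trypsin and chymotrypsin. Each protease was used at 11 concentrations in a threefold dilution series plus a no-protease condition. K50 was inferred by Bayesian fitting of sequencing counts, and dG unfold was derived against a sequence-predicted unfolded-state K50 (Tsuboyama et al. method). Sequences shown include variable-length N-terminal GS-type padding (SAGGSAGG...) inside a display construct carrying a PA tag. Rows were kept only if the AF2 dimer inter-PAE was >15, to exclude likely homo-oligomers.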

[2] = folding stability dG unfold (combined trypsin and chymotrypsin); higher = more stable
In short: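 Mini-proteins designed to be under 80 residues and free of cysteine were carried in a PA-tagged cDNA display construct and digested with trypsin and with chymotrypsin. Each protease was applied at 11 threefold-diluted concentrations, alongside a no-protease condition, before sequencing. K50 came from Bayesian fitting of the sequencing counts, and unfolding free energy was obtained by comparing it with a sequence-predicted unfolded-state K50 and a shared folded-state K50, for each protease separately or for both together. Designs were retained only if their AlphaFold2 dimer inter-PAE exceeded 15.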

Sequence	folding stability dG unfold [1] [kcal/mol]	folding stability dG unfold [2] [kcal/mol]
SAGGSAGGSDWFPIRVEDIEYERDPADGRDSVTIEAQFPGKPHTFTIPPNAPIKPGDELWIPFSAGGSAGGS [r20_49_TrROS]	-1.9 ± 0.8	< -1
SAGGSAGGSATVIIMVDPDDIEEALKEAPPNSKVMIHNPDNGYMFEITPNKLEIVEPIPPGDSAGGSAGGSA [r18_246_TrROS]	0.279 ± 0.058	-0.0908 ± 0.23
SAGGSITLEIELPNGAKITVTIEYDEETGTVTIEAEITLPNGTVIRIKATINKDGTITIEKIEVFKPSAGGS [r16_213_TrROS_Hall]	4.82 ± 0.69	> 6
GKVLAVPVSYDPETGTVTVLEVKDTGTTLATLKPLPVVDISREELEKLAKGLAEENPELKELAEKLVEELAS [r1_330_TrMRF]	-0.145 ± 0.075	-0.197 ± 0.35
SAGGSAGGSMIVVKTENGEEIEISKDALKPGMTAEELKAKLPPGVKKIEIVEVKEVEVEVEEESAGGSAGGS [r20_161_TrROS_Hall]	-0.865 ± 0.4	< -1
SAGGSAMKVKSIHWQRHGDRPMVRIKIQNPDGKKRERNIPMDDPEKFKKEAKELAKEGKIKEIEPYSAGGSA [r15_575_TrROS]	-0.42 ± 0.81	< -1
SAGGMGQEELENLPPEVVAGLLAEEALAEAERLGRPNEAVTVEVELGDVPLRIELTADGKIARIEAGSAGGS [r16_431_TrMRF]	-0.548 ± 0.14	< -1
SAGGSAGGSAKITIPASQITHVDLETGELLVDHPSGRPIIFRVDPDRPDLILVEDPSGLSLGSAGGSAGGSA [r18_418_TrMRF]	-0.703 ± 0.15	< -1
SAGGSAGGSAGGSEPWYVRIQIPDGNQIMFPPGSEAKIEIPKEEKDIRITEVIPADDIKSAGGSAGGSAGGS [r4_122_TrROS]	0.0224 ± 0.13	< -1
SAGGSAGGSPPFTITFIDENGKGVKKINLPFDPKKPSVLPLSEEEIKALKEELGPEAKSITLSSAGGSAGGS [r12_514_JUSTAS]	-0.658 ± 0.16	< -1
SAGGSNNDNQPEPKVPYMEITINIPVNYNPNQSEEDRKRQVQEFIEELKDMYIPFPNGYPIRIDVMSAGGSA [r2_149_TrROS]	0.149 ± 0.13	-0.554 ± 0.49
SAGGSAGGSAGMEIEVEVDPSTNTVKLTKKIGGKWVEATVTRTPGTGTITLPDGSTLKLTSAGGSAGGSAGG [r11_395_JUSTAS]	-0.709 ± 0.47	< -1
SAGGSAMTLEELKGMPIRSWWPGGQKIEMPIKKIDLNDPMFEIKFGGEPIKIPFNHPMRIEIQPPKSAGGSA [r15_355_TrROS]	0.0637 ± 0.052	-0.64 ± 0.27
SAGGSMEIPLGETIPIFFDDVIIEIEPETHEIHVIAEDSEKALELIKNLPFPIPAGEVKELSPEEFSAGGSA [r2_418_TrMRF]	0.352 ± 0.042	-0.364 ± 0.21
SVVNFPVSLAATRDGNPVPIEEVLERVAKEIGGPDVKPEIKPGPGDTLVATVKLPDGTTATASDSSSVTDAS [r1_168_JUSTAS]	-0.293 ± 0.11	< -1
SAGGSAGGSAGGVRIRPPNGEWIRIDNAPDDEDIKDKLKKHPNVKPEIDPDTNEAWIPVSAGGSAGGSAGGS [r10_792_TrROS]	-1.09 ± 0.42	< -1
SAGGSAGGSAGGIWIPGDDIKEALKKMPPDVTKHIFNPDEGRWIMIKVNDNKIDIEPWPSAGGSAGGSAGGS [r10_137_TrROS]	-0.392 ± 0.16	-0.748 ± 0.36
SAGGSAGGSAGGMTTITVKDKTKEEIEKELAEKYNVKKVTVTPIEGNSVKVEVEIEPLGSAGGSAGGSAGGS [r10_1219_JUSTAS]	-0.216 ± 0.19	-0.948 ± 0.46
SAGGMVVTSESREPDGTWTVRTVYRDPAGNLTITSSSTSSATVTRKDSAGTPSTAASTTNTYTSAALSAGGS [r8_270_JUSTAS]	0.216 ± 0.067	-0.281 ± 0.15
SAGGELREKIEEAVEEAAKAGKPVVKTSEIEARLGRPLTPELLEYVREKGIIERDPKGSITITLPEDKSAGG [r13_188_JUSTAS]	-0.895 ± 0.91	< -1
SAGGMDVKVEVKEVELPEAKVTITKITTPDGSTSTITYDPETGTADVTTTTPTSTTTTTLPKSEIKPLSAGG [r13_328_JUSTAS]	0.846 ± 0.097	0.184 ± 0.31
IKIRFPDGHEITEIDDLSFSGNGYIEINVKVRNPENPQTQPMPIYIPVPPVPPPPVKIERDPGNGKWKYEDS [r1_411_TrROS]	0.799 ± 0.07	-0.179 ± 0.33
SAGGSAGGLVIRNPDTNELIELKPGEELTITVTVEAPPAEEETTTETETRTLTLTVRLPEEAEESAGGSAGG [r6_273_TrROS_Hall]	0.156 ± 0.16	-0.0133 ± 0.21
